Data from patent publication US20160222114A1 (published 2016).

B1: hu Mab8D5 Fab' fragment (Fab, V domains shown)
VH: EVQLVESGGGLVQPGGSLRLSCAASGFTISSYDMHWVRQATGKGLEWVSVIGPAGDTYYPGSVKGRFTISRENAKNSLYLQMNSLRAGDTAVYYCAREGMAAHNYYGMDVWGQGTTVTVSS
VL: not shown
B2: hu Mab8D5 (IgG4 version of 8D5, fully human monoclonal agonist anti-BTLA antibody) (antibody, V domains shown)
VH: EVQLVESGGGLVQPGGSLRLSCAASGFTISSYDMHWVRQATGKGLEWVSVIGPAGDTYYPGSVKGRFTISRENAKNSLYLQMNSLRAGDTAVYYCAREGMAAHNYYGMDVWGQGTTVTVSS
VL: not shown
notes: Rest: human IgG4/kappa; Re-expressed in CHO-S cells; also called hu Mab8D5 G4; 8D5 (G4) agonist
B3: hu Mab8D5 G1 (IgG1 version of 8D5) (antibody, V domains shown)
VH: EVQLVESGGGLVQPGGSLRLSCAASGFTISSYDMHWVRQATGKGLEWVSVIGPAGDTYYPGSVKGRFTISRENAKNSLYLQMNSLRAGDTAVYYCAREGMAAHNYYGMDVWGQGTTVTVSS
VL: not shown
notes: same variable regions as hu Mab8D5; also called IgG1 version of hu Mab8D5; 8D5 IgG1 Mab

Assays:
[1] = biological target: human BTLA, endogenous protein of peripheral blood B and T cells of healthy donors (human, UniProt Q7Z6A9 31-289); assay: cell-based or functional assay
[2] = biological target: T1, human BTLA (analyte of the BIAcore measurements) (human, UniProt Q7Z6A9 31-156, limits assumed); assay: BIAcore
T1 sequence: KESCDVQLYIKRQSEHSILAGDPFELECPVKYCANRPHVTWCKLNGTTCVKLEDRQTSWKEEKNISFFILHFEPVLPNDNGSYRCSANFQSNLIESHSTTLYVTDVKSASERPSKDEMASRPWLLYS

[3] = biological target: T1, human BTLA (analyte of the BIAcore …); assay: BIAcore surface plasmon resonance
[4] = biological target: T1, human BTLA (analyte of the BIAcore …); assay: BIAcore, antibody captured on an anti-CH1 chip
Text: For BIAcore, the test antibodies were captured on an anti-CH1 chip.

[5] = biological target: T2, cynomolgus BTLA expressed on CHO cells (cynomolgus, UniProt A0A2K5W7M7 31-289); assay: flow cytometry on CHO cells expressing cynomolgus BTLA, PE-anti-huFc detection
T2 construct: whole, on cells; also called cyno BTLA; CHO cells expressing cynomolgus BTLA
T2 sequence: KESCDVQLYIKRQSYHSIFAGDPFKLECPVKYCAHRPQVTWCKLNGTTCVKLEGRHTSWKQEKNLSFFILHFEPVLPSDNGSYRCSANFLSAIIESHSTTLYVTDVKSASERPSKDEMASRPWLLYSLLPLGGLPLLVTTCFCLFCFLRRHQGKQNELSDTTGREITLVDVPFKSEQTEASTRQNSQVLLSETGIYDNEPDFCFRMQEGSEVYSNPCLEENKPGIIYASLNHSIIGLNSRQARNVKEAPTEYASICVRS

Row | Binder | relative potency of the Fab′ against the full Mab [1] [fold less] | koff [2] [s⁻¹] | kon [2] [M⁻¹ s⁻¹] | Kd [3] [nM] | koff [4] [s⁻¹] | kon [4] [M⁻¹ s⁻¹] | EC50 [5] [nM]
1 | B1 | ~10 | – | – | – | – | – | –
2 | B2 | – | 0.000137 | 45800 | ~2 | 0.00019 | 79000 | ~12
3 | B3 | – | – | – | – | – | – | ~12
